Reference: the supplement of paper PMC7877785
± gives the uncertainty stated by the source.

Experiment: self-splicing fitness, log relative to wild type (ln ratio); higher = more splicing; Tetrahymena group I intron in knt gene, E. coli kanamycin selection, DiMSum; sequences stand for … in CUCUCU…GGAGGGAAAAGUUAUCAGGCAUGCACCUGGUAGCUAGUCUUUAAACCAAUAGAUUGCAUCGGUUUAAAAGGCAAGACCGUCAAAUUGCGGGAAAGGGGUCAACAGCCGUUCAGUACCAAGUCUCAGGGGAAACUUUGAGAUGGCCUUGCAAAGGGUAUGGUAAUAAGCUGACGGACAUGGUCCUAACCACGCAGCCAAGUCCUAAGUCAACAGAUCUUCUGUUGAUAUGGAUGCAGUUCACAGACUAAAUGUCGGUCGGGGAAGAUGUAUUCUUCUCAUAAGAUAUAGUCGGACCUCUCCUUAAUGGGAGCUAGCGGAUGAAGUGAUGCAACACUGGAGCCGCUGGGAACUAAUUUGUAUGCGAAAGUAUAUUGAUUAGUUUUGGAGUACUCGUGGUCG
How it was run: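 A randomised library covering all eight P1ex-region intron nucleotides was built with the intron in the knt kanamycin-resistance gene on pET-22b(+) and held in E. coli BL21(DE3). Cells were grown overnight at 37°C or 30°C on LB agar, with or without 25 μg/mL kanamycin, plus 100 μg/mL carbenicillin, 50 μM IPTG and 0.2% rhamnose, and pooled colonies were amplicon-sequenced on an Illumina HiSeq 2500. DiMSum fitness is the error-weighted combination of wild-type-normalised replicate fold changes, kanamycin versus none.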

Sequence	self-splicing fitness (ln) (30 °C)	self-splicing fitness (ln) (37 °C)
AAAAAGCAAUAUUACGCAGC	-1.99 ± 0.13	-2.19 ± 0.19
ACCCAGCAAUAUUACGCCGG	-3.06 ± 0.16	-2.96 ± 0.26
UGGAAGCAAUAUUACGAGCA	-0.526 ± 0.082	0.193 ± 0.1
AGGCAGCAAUAUUACGUAUA	-3.08 ± 0.15	-1.56 ± 0.12
CUAGAGCAAUAUUACGUGGC	-3.87 ± 0.24	-1.8 ± 0.23
AGCGAGCAAUAUUACGAGCA	-0.722 ± 0.11	-0.526 ± 0.11
GAAAAGCAAUAUUACGAUGC	-0.709 ± 0.08	-0.503 ± 0.1
GUACAGCAAUAUUACGUACU	-2.77 ± 0.14	-2.79 ± 0.25
GGGUAGCAAUAUUACGAUGG	-2.86 ± 0.24	-2.65 ± 0.37
UAUUAGCAAUAUUACGAGCU	-2.63 ± 0.26	0.924 ± 0.21
UAUUAGCAAUAUUACGCUCG	-0.476 ± 0.17	0.237 ± 0.2
GAUUAGCAAUAUUACGUCGC	-1.91 ± 0.15	-0.838 ± 0.16
CUCAAGCAAUAUUACGGCUU	-3.53 ± 0.18	-2.65 ± 0.21
CAAUAGCAAUAUUACGAAGG	-1.86 ± 0.095	-0.211 ± 0.13
UCCCAGCAAUAUUACGAAAA	-2.38 ± 0.2	-0.834 ± 0.18
UAAAAGCAAUAUUACGACCG	0.0682 ± 0.1	0.499 ± 0.15
UAAAAGCAAUAUUACGUGUA	-1.86 ± 0.055	-0.743 ± 0.056
GAAGAGCAAUAUUACGUUUU	-4.09 ± 0.23	-2.38 ± 0.21
UCCAAGCAAUAUUACGCCCG	-2.32 ± 0.26	–
CGAGAGCAAUAUUACGGGUG	-2.95 ± 0.15	-2.01 ± 0.16
AUACAGCAAUAUUACGUGUU	-3.98 ± 0.21	-2.64 ± 0.22
UAUUAGCAAUAUUACGCCCA	-0.378 ± 0.23	-0.366 ± 0.3
ACUUAGCAAUAUUACGCCAA	-3.19 ± 0.29	-2.17 ± 0.28
UUUUAGCAAUAUUACGAUUA	-0.349 ± 0.16	0.0391 ± 0.13
GACUAGCAAUAUUACGGGCC	–	-2.46 ± 0.41
AUGGAGCAAUAUUACGACAC	-1.26 ± 0.32	-1.08 ± 0.26

Sequence	self-splicing fitness (ln) (30 °C)	self-splicing fitness (ln) (37 °C)
CUCCAGCAAUAUUACGUUAU	-3.58 ± 0.22	-3.38 ± 0.28
ACUUAGCAAUAUUACGGGUG	-1.14 ± 0.059	-0.754 ± 0.085
AUGGAGCAAUAUUACGUGUA	-3.43 ± 0.26	-3.04 ± 0.23
AAAAAGCAAUAUUACGCACC	-1.16 ± 0.14	-0.602 ± 0.16
AUUCAGCAAUAUUACGUGCA	-0.628 ± 0.08	-0.47 ± 0.083
UGACAGCAAUAUUACGAACU	-0.592 ± 0.14	0.0955 ± 0.17
CGUGAGCAAUAUUACGAUUA	–	-2.93 ± 0.25
AACCAGCAAUAUUACGUAGA	-1.75 ± 0.044	-0.514 ± 0.058
CUCCAGCAAUAUUACGCCUG	-3.25 ± 0.21	-2.71 ± 0.27
CAUUAGCAAUAUUACGAUGU	-3.45 ± 0.25	-3.38 ± 0.23
ACUCAGCAAUAUUACGAAAA	-1.32 ± 0.11	-1.36 ± 0.16
ACUGAGCAAUAUUACGCAUG	-1.95 ± 0.14	-2.23 ± 0.16
UAAAAGCAAUAUUACGAUCU	-0.413 ± 0.079	0.0961 ± 0.099
UUCGAGCAAUAUUACGAGUC	-2.82 ± 0.29	-2.03 ± 0.45
UGGAAGCAAUAUUACGUAUC	-3.27 ± 0.27	-2.28 ± 0.27
GUUUAGCAAUAUUACGUAGC	-1.61 ± 0.2	-0.831 ± 0.17
CUCUAGCAAUAUUACGUAUA	-2.7 ± 0.3	-2.84 ± 0.25
CAGUAGCAAUAUUACGACGG	-0.119 ± 0.085	0.411 ± 0.11
CGCAAGCAAUAUUACGACCU	-0.793 ± 0.092	-0.711 ± 0.12
GUCCAGCAAUAUUACGAAGU	-0.504 ± 0.074	0.0552 ± 0.11
UUGAAGCAAUAUUACGAGUG	-0.347 ± 0.055	-0.22 ± 0.077
UGUGAGCAAUAUUACGCAGG	-3.81 ± 0.42	-1.39 ± 0.27
GCGGAGCAAUAUUACGAUUC	-1.32 ± 0.12	-1.09 ± 0.15
AGGGAGCAAUAUUACGAUAA	–	-2.23 ± 0.42
ACCGAGCAAUAUUACGUGGA	-2.84 ± 0.15	-2.99 ± 0.18
GAGAAGCAAUAUUACGGUAA	-1.64 ± 0.2	-1.57 ± 0.18

Sequence	self-splicing fitness (ln) (30 °C)	self-splicing fitness (ln) (37 °C)
GGCUAGCAAUAUUACGACAG	-2.88 ± 0.35	-1.85 ± 0.34
GACGAGCAAUAUUACGCGUA	-1.82 ± 0.12	-1.95 ± 0.098
AUAUAGCAAUAUUACGUACA	-1.07 ± 0.14	-0.785 ± 0.16
UACCAGCAAUAUUACGCAAU	-2.29 ± 0.091	-0.841 ± 0.076
UGAAAGCAAUAUUACGCAUU	-3.13 ± 0.23	–
GCCCAGCAAUAUUACGCUUA	-0.569 ± 0.071	-0.378 ± 0.08
CCCCAGCAAUAUUACGAAUG	-4.11 ± 0.21	-2.3 ± 0.15
GAGAAGCAAUAUUACGUUUU	-2.39 ± 0.14	-1.96 ± 0.17
CAUGAGCAAUAUUACGUUUG	-3.57 ± 0.16	-2.89 ± 0.2
AUGUAGCAAUAUUACGGAAG	–	-2.01 ± 0.31
CAUUAGCAAUAUUACGCCAC	-2.71 ± 0.44	-2.41 ± 0.35
UUUGAGCAAUAUUACGCCUG	-2.85 ± 0.27	-1.21 ± 0.38
UAGAAGCAAUAUUACGUAUA	-1.58 ± 0.16	-0.471 ± 0.15
AAUGAGCAAUAUUACGACCU	-0.757 ± 0.24	-0.257 ± 0.41
CGUCAGCAAUAUUACGCUAA	-2.28 ± 0.18	-0.0328 ± 0.15
CCCCAGCAAUAUUACGGUCG	-2.24 ± 0.068	-1.2 ± 0.078
UCAAAGCAAUAUUACGCCAG	-1.35 ± 0.13	-0.892 ± 0.18
UUUAAGCAAUAUUACGAGGA	-1.85 ± 0.13	-1.22 ± 0.15
GUGAAGCAAUAUUACGAGAC	-2.62 ± 0.19	-0.955 ± 0.12
CACUAGCAAUAUUACGACGG	-0.0504 ± 0.083	-0.117 ± 0.082
ACCGAGCAAUAUUACGCGGA	-2.09 ± 0.1	-0.721 ± 0.089
AUGGAGCAAUAUUACGUCUU	-2.52 ± 0.16	-1.81 ± 0.21
AGAUAGCAAUAUUACGCAUU	-2.76 ± 0.21	-1.02 ± 0.21
UGUGAGCAAUAUUACGCGGG	–	-2.31 ± 0.26
UUGUAGCAAUAUUACGUUUC	-3.69 ± 0.46	–
